This passage reports screen value results from publication PMC5039624 (Scientific Reports, 2016).

B1: unnamed (parent)
chain 1: SECGKFMWKCKNSNDCCKDLVCSSRWKWCVLASPF
chain 2: RGLSDLGGRVRNIGDVMEHPLVELGVSYAALLSVIVVVVEYTMQLSGEYLVRLYLVDLILVIILWADYAYRAYKSGDPAGYVKKTLYEIPALVPAGLLALIEGHLAGLGLFRLVRLLRFLRILLIISRGSKFLSAIADAADK

In the experiment the parent is B1. Briefly: pull-down. The settings on record: with partner chain of the complex shown; His6-tagged VSDK micelles immobilized on nickel-NTA beads; read off a plot. Further details: reference not given here.
For the variant chain 2 RGLSDLGGRVRNIGDVMEHPLVELGVSYAALLSVIVVVVEYAMQLSGEYLVRLYLVDLILVIILWADYAYRAYKSGDPAGYVKKTLYEIPALVPAGLLALIEGHLAGLGLFRLVRLLRFLRILLIISRGSKFLSAIADAADK [chain 2 T42A], the screen value came to 6%.
To chain 2 RGLSDLGGRVRNIGDVMEHPLVELGVSYAALLSVIVVVVEATMQLSGEYLVRLYLVDLILVIILWADYAYRAYKSGDPAGYVKKTLYEIPALVPAGLLALIEGHLAGLGLFRLVRLLRFLRILLIISRGSKFLSAIADAADK [chain 2 Y41A] belongs 8%; to chain 2 RGLSDLGGRVRNIGDVMEHPLVELGVSYAALLSVIVVVVEYTMQLSGEYLVRLYLVDLILVIILAADYAYRAYKSGDPAGYVKKTLYEIPALVPAGLLALIEGHLAGLGLFRLVRLLRFLRILLIISRGSKFLSAIADAADK [chain 2 W65A], -7%; to chain 2 RGLSDLGGRVRNIGDVMEHPLVELGVSYAALLSVIVVVVEAAMALSGEYLVRLYLVDLILVIILWADYAYRAYKSGDPAGYVKKTLYEIPALVPAGLLALIEGHLAGLGLFRLVRLLRFLRILLIISRGSKFLSAIADAADK [chain 2 Y41A T42A Q44A], 51%.
To chain 2 RGLSDLGGRVRNIGDVMEHPLVELGVSYAALLSVIVVVVEYTMQLSGEYLVRLYLVDLILVIILWADYAYRAYKSGDPAGYVKKTLYEIPALVPAGLLALIEGHLAGLGLFRLVALLRFLRILLIISRGSKFLSAIADAADK [chain 2 R115A] belongs 7%.
To chain 2 RGLSDLGGRVRNIGDVMEHPLVELGVSYAALLSVIVVVVEYTMQLAGEYLVRLYLVDLILVIILWADYAYRAYKSGDPAGYVKKTLYEIPALVPAGLLALIEGHLAGLGLFRLVRLLRFLRILLIISRGSKFLSAIADAADK [chain 2 S46A] belongs 11%; to chain 2 RGLSDLGGRVRNIGDVMEHPLVELGVSYAALLSVIVVVVEAAMQLSGEYLVRLYLVDLILVIILWADYAYRAYKSGDPAGYVKKTLYEIPALVPAGLLALIEGHLAGLGLFRLVRLLRFLRILLIISRGSKFLSAIADAADK [chain 2 Y41A T42A], 19%.
